Seven molecules from patent US20250325718A1 (Janssen / Centocor, published 2025) can be followed below.

The target in test [1] is T1, Kallikrein related peptidase 2 (hK2), soluble human protein (human, UniProt P20151 19-261).
T1 construct: the stated signal peptide (residues 1-18) is left out, the pro-peptide (19-24) is kept; also called KLK2; kallikrein-2
Description: SPR, sentence summing up Table 14.
Description: (§1) Affinity of selected hK2 antibodies for soluble hK2 was measured by surface plasmon resonance (SPR). […] Antibodies were captured on a sensor chip coated with an anti-Fc antibody followed by injection of soluble hK2 at various concentrations and specified association and dissociation times. Post dissociation, the surface was regenerated with an appropriate solution to prepare for the next interaction. Kinetic information (on-rate and off-rate constants) were extracted by fitting sensorgrams to the 1:1 Langmuir model. Binding affinity (KD) are reported as the ratio of rate constants (koff/kₒₙ).

The target of test [2] is T1, Kallikrein related peptidase 2 (hK2), …. Briefly: SPR, antibody captured on anti-Fc chip, soluble hK2 injected, 1:1 Langmuir fit. For orientation: Surface plasmon resonance follows binding to a sensor surface in real time, without labels.
Description: as §1

T1 sequence (P20151 19-261): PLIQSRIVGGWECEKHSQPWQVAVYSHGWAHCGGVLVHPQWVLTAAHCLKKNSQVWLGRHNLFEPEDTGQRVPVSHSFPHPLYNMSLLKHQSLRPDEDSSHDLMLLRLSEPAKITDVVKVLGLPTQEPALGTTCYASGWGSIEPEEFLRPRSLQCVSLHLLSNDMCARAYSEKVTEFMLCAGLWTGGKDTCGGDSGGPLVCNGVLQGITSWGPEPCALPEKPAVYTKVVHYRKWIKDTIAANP

B1: KL2B494 (Fab) (Fab, V domains shown)
VH: QVQLVESGGGLVQPGGSLRLSCAASGFTFSHYAMSWVRQAPGKGLEWVSTIGGSGGSTYYADSVKGRFTISRDNSKNTLYLQMNSLRAEDTAVYYCAKPHIVMVTALLYDGMDVWGQGTMVTVSS
VL: SSELTQPPSVSVAPGQTARITCGGNNIGSKSVHWYQQKPGQAPVLVVYDDSDRPSGIPERFSGSNSGNTATLTISRVEAGDEADYYCQVWDSSSDHVVFGGGTKLTVL
As usually defined, the Kd is the equilibrium constant for the complex coming apart. A high value points to weaker binding. B1: the Kd in test [1] is < 500 pM; in test [2] it was 53 pM.

B2: KL2B53 (Fab) (Fab, V domains shown)
VH: EVQLVESGGGVVQPGRSLRLSCVASGFTFSSYDIHWVRQAPGKGLEWVAIISYDGSKKDYTDSVKGRFTISRDNSKNTLYLQMDSLRVEDSAVYSCARESGWSHYYYYGMDVWGQGTMVTVSS
VL: DIVMTQSPSSLSASVGDRVTITCRASQDISNYLAWYQQKPGKVPKFLIYAASTLHSGVPSRFSGSGSGTDFTLTISSLQPEDVATYYCQKYNSAPYTFGQGTRLEIK
For the molecule B2, the Kd was < 500 pM in test [1] and 80 pM in test [2].

B3: KL2B359 (scFv-LH-Fc) (Fc fusion)
scFv: EIVLTQSPATLSLSPGERATLSCRASESVEYFGTSLMHWYQQKPGQPPRLLIYAASNVESGIPARFSGSGSGTDFTLTISSVEPEDFAVYFCQQTRKVPYTFGGGTKVEIKGGSEGKSSGSGSESKSTGGSQVQLQESGPGLVKPSQTLSLTCTVSGNSITSDYAWNWIRQFPGKRLEWIGYISYSGSTTYNPSLKSRVTISRDTSKNQFSLKLSSVTAADTAVYYCATGYYYGSGFWGQGTLVTVSS
notes: scFv (VL-linker-VH) fused to an Fc; also called scFv20; KL2B359_LH; not shown: The hinge and Fc of the scFv-LH-Fc
Turning to B3, the Kd in test [2] lay in the range of 700 to 1000 pM.

B4: KL2B413 (scFv-LH-Fc) (Fc fusion)
scFv: EIVLTQSPSFLSASVGDRVTITCRASQGISSYLSWYQQKPGKAPKLLIYATSTLQSGVPSRFSGSGSGTEFTLTISSLQPEDFATYYCQQLNSYPRTFGQGTKVEIKGGSEGKSSGSGSESKSTGGSEVQLVESGGGLVQPGGSLRLSCAASGFTFSSYWMTWVRQAPGKGLEWVANIKQDGSERYYVDSVKGRFTISRDNAKNSLYLQMNSLRAEDTAVYYCARDQNYDILTGHYGMDVWGQGTTVTVSS
notes: scFv (VL-linker-VH) fused to an Fc; also called scFv18; KL2B413_LH; not shown: The hinge and Fc of the scFv-LH-Fc
In the case of B4, binding in test [2] was characterised by a dissociation constant (Kd) of 34300 pM.

B5: KL2B242 (Fab) (Fab, V domains shown)
VH: QVQLQESGPGLVKPSETLSLTCTVSGGSISSYYWSWLRQPAGSGLEWIGRLYVSGFTNYNPSLKSRVTLSLDPSRNQLSLKLSSVTAADTAVYYCAGDSGNYWGWFDPWGQGTLVTVSS
VL: SYELTQPPSVSVSPGETASITCSGDQLGENYACWYQQKPGQSPVLVIYQDSKRPSGIPERFSGSNSGNTATLTISGTQALDEADYYCQAWDNSIVVFGGGTKLTVL
Take B5: the Kd in test [1] is < 500 pM; in test [2], 40 pM.

B6: KL2B30 (Fab) (Fab, V domains shown)
VH: QVQLQESGPGLVKPSETLSLTCTVSGGSISSYYWSWIRQPPGKGLEWIGYIYYSGSTNYNPSLKSRVTISVDTSKNQFSLKLSSVTAADTAVYYCAGTTIFGVVTPNFYYGMDVWGQGTTVTVSS
VL: DIQMTQSPSFLSASVGDRVTITCRASQGISSYLAWYQQKPGKAPKFLIYAASTLQSGVPSRFSGSGSGTEFTLTISSLQPEDFATYYCQQLNSYPLTFGGGTKVEIK
In the case of B6, the figures for the Kd in test [1] and in test [2] were < 500 pM and 460 pM, respectively.

B7: KL2B467 (Fab) (Fab, V domains shown)
VH: QVQLVESGGGVVQPGRSLRLSCAASGFTFSYYGMHWVRQAPGKGLEWVAFISYDGSNKYYADSVKGRFTISRDNSKNTLYLQMNSLRAEDTAVYYCAHLPYSGSYWAFDYWGQGTQVTVSS
VL: QSVLTQPPSVSVAPGQTASITCGGDNIGSKSVHWYQQKPGQAPVLVVYDNSDRPSGIPERFSGSNSGTTATLTISRVEAGDEADYYCQVWDSSSDHPVVFGGGTKVTV
As for B7, the Kd was < 500 pM in test [1] and 78 pM in test [2].
